Common to all, as to type: cell-based, Human
What all share (conditions): co-expression with MEKK1

The subject of one assay is HEK293 cells. The assay is described as follows: MEKK1 staining and TdT-mediated dUTP incorporation (DNA fragmentation) in transfected cells. How it is done: Human embryonal kidney 293 cells (HEK293) stably expressing the EBNA-1 protein from Epstein-Barr virus (Invitrogen) were grown in Dulbecco's modified Eagle's medium (DMEM) supplemented with 100 U/ml penicillin/streptomycin and containing 10% bovine calf serum (BCS). The cells were transfected using lipofectamine (Gibco).
Cells were grown on glass coverslips and transfected using lipofectamine. Two days after transfection, the medium was removed and the cells were fixed in 2% paraformaldehyde, 3% sucrose in phosphate buffered saline (PBS) for 10 min at room temperature. Following three washes with PBS, the cells were permeabilized for 10 min with 2% Triton-X100 in PBS. After three PBS washes, the cells were blocked with filtered cultured medium for 15 min. The coverslips were then incubated 1 hour in TdT reaction mix (200 mM potassium cacodylate, 25 mM Tris.HCl, pH 6.6, 250 μg/ml BSA, 5 mM CoCl2, 0.25 U/μl TdT [Boehringer], 10 μM biotin-dUTP [Boehringer]) at 37° C. in a humidifed atmosphere. […] The coverslips were then washed 6× over a 30 min period with PBS and incubated 1 hour at room temperature with a 1/1000 dilution in filtered culture medium of a donkey anti-rabbit, Cy^3-conjugated, antibody (Jackson Immunological) mixed with 5 μg/ml streptavidin conjugated with FITC (Jackson Immunological). The coverslips were washed 6× with PBS and incubated overnight in PBS before being mounted in 20 mg/ml o-phenyldiamine-diHCl (Sigma) in 0.1 M Tris pH 8.5, 90% glycerol. Images were taken using a Leica DMRXA microscope and analyzed with the SlideBook v2.0 software (Intelligent Imaging Innovations, Denver). The subcellular localization of endogenous MEKK1 observed with the anti-COOH-terminal MEKK1 antibody was identical to that observed with a second antibody recognizing the NH2-terminal portion of the MEKK1 protein.

A further assay deals with MEKK1. The assay is described as follows: Immunoblot of cleavage fragments of transfected HA-tagged MEKK1 in HEK293 cells. The text has this: The full length cDNA encoding mouse MEKK1 was modified by addition of the HA-tag sequence ([…]) (SEQ ID NO: 12) at its NH2-terminus and inserted into the expression plasmid pCEP4 (Invitrogen), resulting in plasmid MEKK1.cp4. The MEKK1 sequences DTVD (amino acids 871-874) and DEVE (amino acids 857-860) in MEKK1.cp4 were substituted with alanines using a PCR strategy. The resulting plasmids were named DTVD_A.cp4 and DEVE_A.cp4. The cDNAs for CrmA (Pickup et al., 1986), p35 (Cartier et al., 1994), JNK1-APF (Dérijard et al., 1994) and JNK2-APF (Kallunki et al., 1994) were subcloned in pCEP4 in which the hygromycin resistance gene had been removed, resulting in plasmids CrmA.cp_, p35.cp_, JNK1_APF.cp and JNK2_APF.cp_. Plasmid pCDNA—3.cp4 is the result of the ligation of pCEP4 and pCDNA-3.
200-400 μg cell lysate protein was subjected to SDS-9% PAGE and transferred to nitrocellulose membranes. Blots were performed exactly as described (Widmann et al., 1995). To detect HA-tagged proteins, the mouse monoclonal antibody 12CA5 (Babco) was used as the primary antibody, followed by a rabbit anti-mouse antibody (Cappel). HRP-conjugated protein A at a 1/5000 dilution (Zymed) and ^125I-protein A at a 1/500 dilution (Dupont NEN) were then used for enhanced chemiluminescence (ECL) detection and for quantification using the phosphorimager. To detect MEKK1, 3 different ploclonal antisera were used as primary antibodies, followed by ECL detection using HRP-protein A (see above). These sera were generated by injecting rabbits with GST proteins fused with different portions of the MEKK1 protein.
A general note: Immunoblotting shows a protein as a band on a membrane.

A further assay has as its system c-Jun kinase (JNK). The assay is described as follows: c-Jun kinase assay, transfected HEK293 cells. Here is the method: (§1) Lysis buffer (70 mM β-glycerophosphate, 1 mM EGTA, 100 μM Na3VO4, 1 mM DTT, 2 mM MgCl2, 0.5% Triton-X100, 20 μg/ml aprotinin) was added to cells 15-24 hours after transfection. Cellular debris was removed by centrifugation at 8,000xg for 5 min. Protein concentration was normalized by Bradford assay using BSA as standard.
c-Jun kinase (JNK) activity was measured using a solid phase kinase assay in which glutathione S-transferase-c-Jun(1-79) (GST-Jun) bound to glutathione-Sepharose 4B beads was used to affinity-purify JNK from cell lysates as described (Gardner and Johnson, 1996; Hibi et al., 1993). Alternatively, JNKI or JNK2 were immunoprecipitated with isoform specific antibodies (Santa Cruz Biotechnology) and GST-Jun used as substrate in an in vitro kinase assay (Hibi et al., 1993). Quantitation of the phosphorylation of GST-Jun was performed with a Phosphorlmager.

A further assay deals with ERK2. Description: ERK2 immunoprecipitation kinase assay, transfected HEK293 cells. Here is the method: as §1
ERK2 was immunoprecipitated as described above for the JNK isoforms using the ERK2 (C-14) antibody (Santa Cruz Biotechnology). The beads were washed twice with 1 ml lysis buffer and twice with 1 ml lysis buffer without Triton-X100. […] The samples were washed thrice for 5 min each in 75 mM phosphoric acid and once for 2 min in acetone, air-dried, and their radioactivity determined in a β counter.

B1: JNK1-APF: inhibitory mutant of JNK1 (protein, UniProt P45983 1-427, looked up, variant T183A Y185F)
Mitogen-activated protein …: MSRSKRDNNFYSVEIGDSTFTVLKRYQNLKPIGSGAQGIVCAAYDAILERNVAIKKLSRPFQNQTHAKRAYRELVLMKCVNHKNIIGLLNVFTPQKSLEEFQDVYIVMELMDANLCQVIQMELDHERMSYLLYQMLCGIKHLHSAGIIHRDLKPSNIVVKSDCTLKILDFGLARTAGTSFMMAPFVVTRYYRAPEVILGMGYKENVDLWSVGCIMGEMVCHKILFPGRDYIDQWNKVIEQLGTPCPEFMKKLQPTVRTYVENRPKYAGYSFEKLFPDVLFPADSEHNKLKASQARDLLSKMLVIDASKRISVDEALQHPYINVWYDPSEAEAPPPKIPDKQLDEREHTIEEWKELIYKEVMDLEERTKNGVIRGQPSPLGAAVINGSQHPSSSSSVNDVSSMSTDPTLASDTDSSLEAAAGPLGCCR
On to B1, for which the “diminution of apoptotic cells induced by MEKK1 expression” value in the assay on HEK293 cells is given as “no effect”; in the assay with HEK293 cells (listed as JNKI-APF) it was “no protective effect”. In addition, the “effect on proteolysis of MEKK1” value in the assay with MEKK1 is “little effect on the proteolysis of the MEKK1 protein”. In addition, the “effect on activation of the JNKs by MEKK1” value in the assay on c-Jun kinase (JNK) is listed as “unaffected”. The “effect on activation of ERK2 by MEKK1” value in the assay on ERK2 is recorded as “unaffected”.

(Values after US20020055130A1, “Method and product for regulating apoptosis” (National Jewish Center for Immunology and Respiratory …, priority 1997, published 2002).)
